Experimental data: US20260098064A1 (PENN STATE RESEARCH FOUNDATION, published 2026)
Substitutions are numbered along the chain they refer to. Numbers in names are those of the source.

What was measured:
[1] = target: the molecule itself; assay: SEC-MALS of apo, Ca^II, La^III, Nd^III and Dy^III Mex-LanM (Table 17); self-association
Experimental: In-line size-exclusion chromatography and multi-angle light scattering (SEC-MALS). SEC-MALS experiments were conducted using an Agilent 1260 Infinity II HPLC system equipped with an autosampler and fraction collector, and the Wyatt SEC hydrophilic column had 5 μm silica beads, a pore size of 100 Å, and dimensions of 7.8×300 mm. Wyatt Technology DAWN MALS and Wyatt Optilab Refractive Index (RI) detectors were used for analyzing the molar mass of peaks that eluted from the column. The SEC-MALS system was equilibrated for 5 h with Buffer B. The system was calibrated with bovine serum albumin (BSA, monomer MW: 66 kDa) in the same buffer and normalization and alignment of the MALS and RI detectors were carried out. A volume of 15 μL of each sample was injected at a flow rate of 0.8 mL/min with a chromatogram run time of 25 min. Data were analyzed using the ASTRA software (Wyatt). When SAXS analysis was desired, a second run was performed with 150 μL protein (˜4 mg/mL) injected, and 200 μL fractions of the main peak were collected. BioSAXS data were subsequently collected in triplicate.
Table 17. Characterization of Hans- and Mex-LanM metal complexes using SEC-MALS. The concentrations of the protein samples loaded to the column were: 1.2-1.5 mg/mL for apo- and RE-bound Hans-LanM, 3 mg/mL for Ca^II-bound Hans-LanM, and 3 mg/mL for Mex-LanM. […]

[2] = target: the molecule itself; assay: S75 gel filtration during purification, no Ca(II) included; self-association
Experimental: The procedures used for expression in E. coli and purification of LanM_013 were identical to those used for Mex-LanM, except that no Ca(II) was included in the gel filtration step. […] The elution volume of the protein from the S75 column was consistent with a monomer. The purification yielded 80 mg LanM_013 from 2 L culture (40 mg/L).

[3] = size exclusion chromatography; 20 µM LanM_012 with 4.0 equiv. La^III; conditions: 20 µM protein, 5% glycerol, pH 7.0
[4] = size exclusion chromatography; 20 µM LanM_012 with 4.0 equiv. Dy^III; conditions: 20 µM protein, 5% glycerol, pH 7.0
[5] = analytical SEC (Superdex S75); Hans-LanM with 3.0 equiv. Tb^III
[6] = target: the molecule itself; assay: La^III-bound Hans-LanM; no monomerization seen by ITC; upper limit estimated from SEC-MALS peak concentration (FIG. 12)
Experimental: (§1) To provide further support for preferential dimerization in the presence of physiologically relevant LREs, RE complexes of Hans-LanM were analyzed using multi-angle light scattering (MALS) (FIG. 2a, FIG. 9). The La^III, Nd^III, and Gd^III complexes have MWs of 22-25 kDa, indicative of dimers, but MWs decrease starting with Tb^III and continue to Dy^III and Ho^III, at ˜15 kDa (Table 17), in agreement with the SEC data. Ca^II-bound Hans-LanM also indicated a MW of 14.7 kDa. […] The Kd for dimerization (Kdimer) of apo-, La^III-bound, and Dy^III-bound Hans-LanM was determined by isothermal titration calorimetry (ITC) (FIG. 10-12, Table 18). […] Thus, La^III favors Hans-LanM's dimerization by >100-fold over Dy^III.
(§2) Isothermal titration calorimetry. The dissociation constants for the dimers of apo, La^III-bound, and Dy^III-bound Hans-LanM were determined by dilutive additions of a concentrated protein stock, followed using ITC on a TA Instruments Low-volume Auto Affinity ITC. The syringe contained 300 μM protein (apo or 2 equiv. Dy^III bound) or 150 μM or 540 μM (2 equiv. La^III bound), and the cell contained 185 μL of a matched buffer (30 mM MOPS, 100 mM KCl, pH 7.0). Titrations were carried out at 30° C. Titrations consisted of a first 0.2 μL injection followed by 17×2 μL injections, unless otherwise noted, with stirring at 125 rpm and 180 s equilibration time between injections. […]

[7] = analytical SEC (Superdex S75); Hans-LanM with 3.0 equiv. Nd^III
[8] = analytical SEC (Superdex S75); Hans-LanM with 3.0 equiv. Ho^III
[9] = target: the molecule itself; assay: ITC, dimer dissociation model, buffer with 5% glycerol; Dy-bound wt Hans-LanM
Experimental: (§3) Isothermal titration calorimetry. The dissociation constants for the dimers of apo, La^III-bound, and Dy^III-bound Hans-LanM were determined by dilutive additions of a concentrated protein stock, followed using ITC on a TA Instruments Low-volume Auto Affinity ITC. The syringe contained 300 μM protein (apo or 2 equiv. Dy^III bound) or 150 μM or 540 μM (2 equiv. La^III bound), and the cell contained 185 μL of a matched buffer (30 mM MOPS, 100 mM KCl, pH 7.0). Titrations were carried out at 30° C. Titrations consisted of a first 0.2 μL injection followed by 17×2 μL injections, unless otherwise noted, with stirring at 125 rpm and 180 s equilibration time between injections. The heats were fitted using NanoAnalyze using the “Dimer Dissociation” model, yielding the dimer dissociation constant (Kdimer), enthalpy of dissociation (ΔH), and entropy of dissociation (ΔS).
(§4) Table 21. Thermodynamics parameters for WT and R100K Hans-LanM, obtained by fitting ITC thermograms to the dimer dissociation model. These experiments were carried out similarly to those shown in Table 18, except that 5% glycerol was present in the buffer.

[10] = target: the molecule itself; assay: ITC, dimer dissociation model, 5% glycerol; apo wt Hans-LanM; unit not printed (Table 18: cal/mol/K)
Experimental: as §3, §4

[11] = analytical SEC (Superdex S75); Hans-LanM with 3.0 equiv. Dy^III
[12] = target: the molecule itself; assay: ITC, dimer dissociation model, 5% glycerol; Dy-bound wt Hans-LanM; unit not printed (Table 18: cal/mol/K)
Experimental: as §3, §4

[13] = analytical SEC (Superdex S75); Hans-LanM with 3.0 equiv. Sm^III
[14] = analytical SEC (Superdex S75); Hans-LanM with 3.0 equiv. Eu^III
[15] = target: the molecule itself; assay: ITC and SEC-MALS estimate; La^III-bound against Dy^III-bound Hans-LanM
Experimental: as §1, §2

[16] = target: the molecule itself; assay: ITC, dimer dissociation model, buffer with 5% glycerol; apo wt Hans-LanM
Experimental: as §3, §4

[17] = analytical SEC (Superdex S75); Hans-LanM (590 µM) with 3.0 equiv. La^III
[18] = target: the molecule itself; assay: ITC, dimer dissociation model; Dy^III-bound Hans-LanM
Experimental: as §3

[19] = target: the molecule itself; assay: ITC, dimer dissociation model, 5% glycerol; Dy-bound wt Hans-LanM; unit not printed (Table 18: kcal/mol)
Experimental: as §3, §4

[20] = analytical SEC (Superdex S75); Hans-LanM with 3.0 equiv. Gd^III
[21] = target: the molecule itself; assay: ITC dilution of 300 µM protein, dimer dissociation model (Kdimer); apo Hans-LanM; 30 mM MOPS, 100 mM KCl, pH 7.0, 30 C
Experimental: as §3

[22] = target: the molecule itself; assay: ITC, dimer dissociation model; apo Hans-LanM
Experimental: as §3

[23] = target: the molecule itself; assay: ITC dilution of 300 µM protein, dimer dissociation model (Kdimer); Hans-LanM with 2 equiv. Dy^III; 30 mM MOPS, 100 mM KCl, pH 7.0, 30 C
Experimental: as §3

[24] = target: the molecule itself; assay: ITC, dimer dissociation model, 5% glycerol; apo wt Hans-LanM; unit not printed (Table 18: kcal/mol)
Experimental: as §3, §4

[25] = target: the molecule itself; assay: ITC, dimer dissociation model, 5% glycerol; La-bound R100K-Hans-LanM; unit not printed (Table 18: kcal/mol)
Experimental: as §3, §4

[26] = target: the molecule itself; assay: ITC, dimer dissociation model, 5% glycerol; apo R100K-Hans-LanM; unit not printed (Table 18: cal/mol/K)
Experimental: as §3, §4

[27] = target: the molecule itself; assay: ITC, dimer dissociation model, buffer with 5% glycerol; La-bound R100K-Hans-LanM; ITC dimer dissociation model, 5% glycerol; La-bound R100K
Experimental: as §3, §4

[28] = target: the molecule itself; assay: ITC, dimer dissociation model, 5% glycerol; Dy-bound R100K-Hans-LanM; unit not printed (Table 18: kcal/mol)
Experimental: as §3, §4

[29] = target: the molecule itself; assay: ITC, dimer dissociation model, 5% glycerol; apo R100K-Hans-LanM; unit not printed (Table 18: kcal/mol)
Experimental: as §3, §4

[30] = target: the molecule itself; assay: ITC, dimer dissociation model, 5% glycerol; Dy-bound R100K-Hans-LanM; unit not printed (Table 18: kcal/mol); ITC dimer dissociation model, 5% glycerol; Dy-bound R100K
Experimental: as §3, §4

[31] = target: the molecule itself; assay: ITC, dimer dissociation model, 5% glycerol; Dy-bound R100K-Hans-LanM; unit not printed (Table 18: cal/mol/K)
Experimental: as §3, §4

[32] = target: the molecule itself; assay: ITC, dimer dissociation model, buffer with 5% glycerol; Dy-bound R100K-Hans-LanM; ITC dimer dissociation model, 5% glycerol; Dy-bound R100K
Experimental: as §3, §4

[33] = target: the molecule itself; assay: ITC, dimer dissociation model, buffer with 5% glycerol; apo R100K-Hans-LanM; ITC dimer dissociation model, 5% glycerol; apo R100K
Experimental: as §3, §4

[34] = target: the molecule itself; assay: ITC, dimer dissociation model, 5% glycerol; La-bound R100K-Hans-LanM; unit not printed (Table 18: kcal/mol); ITC dimer dissociation model, 5% glycerol; La-bound R100K
Experimental: as §3, §4

[35] = target: the molecule itself; assay: ITC, dimer dissociation model, 5% glycerol; La-bound R100K-Hans-LanM; unit not printed (Table 18: cal/mol/K)
Experimental: as §3, §4

[36] = target: the molecule itself; assay: ITC, dimer dissociation model, 5% glycerol; apo R100K-Hans-LanM; unit not printed (Table 18: kcal/mol); ITC dimer dissociation model, 5% glycerol; apo R100K
Experimental: as §3, §4

B1: Mex-LanM (lanmodulin from Methylorubrum extorquens AM1) (other)
chain: APTTTTKVDIAAFDPDKDGTIDLKEALAAGSAAFDKLDPDKDGTLDAKELKGRVSEADLKKLDPDNDGTLDKKEYLAAVEAQFKAANPDNDGTIDARELASPAGSALVNLIR
notes: also called LanM_001; M. extorquens LanM
binding result [1]: no binding (tested: 3 mg/mL loaded)

B2: LanM_013 (Methyloligella sp. GL2 LanM, expressed construct; signal peptide removed and N-terminal Met added) (other)
chain: MGKAADAIQALDPDKDGTIDLNEAKAGAKAVFEKINPDGDGTLEVKELKGRLTKKELDAADPDNDGTLDMQEYEAVVTKQFELANPDNDGTVDEKELKTKEGKKLLKLIY
notes: Monomer
binding result [2]: no binding

B3: LanM_012 (Xanthobacter flavus LanM, with signal peptide removed) (protein)
chain: MLTGKEFLRKYNKDKDSTVEIVEAIDLGTKVFKAINPDKDKTLEAAETKGRLSDEDWAQFNKDGDKTLELDEWLIIVRKRFNDADANKDGKLTEAELDAPAGQQLILLIAK
apparent molecular weight (SEC) [3]: an apparent molecular weight of ˜29.1 kDa
apparent molecular weight (SEC) [4]: an apparent molecular weight of ˜29.1 kDa

B4: Hans-LanM (lanmodulin from Hansschlegelia quercus, wild type, lacking signal peptide, as expressed in this study) (other)
chain: ASGADALKALNKDNDDSLEIAEVIHAGATTFTAINPDGDTTLESGETKGRLTEKDWARANKDGDQTLEMDEWLKILRTRFKRADANKDGKLTAAELDSKAGQGVLVMIMK
notes: also called LanM_002; wt
Apparent MW (SEC, kDa) [5]: 21.3 kDa
Kd [6]: < 0.4 µM
Apparent MW (SEC, kDa) [7]: 27.8 kDa
Apparent MW (SEC, kDa) [8]: 17.9 kDa
Kd [9]: 40 µM
ΔS of dimer dissociation [10]: 61 cal/mol/K
Apparent MW (SEC, kDa) [11]: 20 kDa
ΔS of dimer dissociation [12]: -36 cal/mol/K
Apparent MW (SEC, kDa) [13]: 26.1 kDa
Apparent MW (SEC, kDa) [14]: 25.5 kDa
fold enhancement of dimerization, La^III versus Dy^III [15]: 100 fold
Kd [16]: 100 µM
Apparent MW (SEC, kDa) [17]: 27.8 kDa
ΔG of dimer dissociation [18]: 5.9 kcal/mol
ΔH of dimer dissociation [18]: -5.3 kcal/mol
ΔS of dimer dissociation [18]: -37 cal/mol/K
ΔG of dimer dissociation [19]: 6.1 kcal/mol
ΔH of dimer dissociation [19]: -5 kcal/mol
Apparent MW (SEC, kDa) [20]: 23 kDa
Kd [21]: 117 µM
ΔG of dimer dissociation [22]: 5.5 kcal/mol
ΔH of dimer dissociation [22]: 25.4 kcal/mol
ΔS of dimer dissociation [22]: 66 cal/mol/K
Kd [23]: 60 µM
ΔG of dimer dissociation [24]: 6.3 kcal/mol
ΔH of dimer dissociation [24]: 24 kcal/mol

B5: R100K-Hans-LanM (other)
chain: B4 chain with R77K
notes: Monomer; also called Hans-LanM(R100K); R100K variant
ΔG of dimer dissociation [25]: 7 kcal/mol
ΔS of dimer dissociation [26]: 37 cal/mol/K
Kd [27]: 14 µM
ΔG of dimer dissociation [28]: 5.9 kcal/mol
ΔG of dimer dissociation [29]: 6 kcal/mol
ΔH of dimer dissociation [30]: -16 kcal/mol
ΔS of dimer dissociation [31]: -73 cal/mol/K
Kd [32]: 54 µM
Kd [33]: 82 µM
ΔH of dimer dissociation [34]: -19 kcal/mol
ΔS of dimer dissociation [35]: -84 cal/mol/K
ΔH of dimer dissociation [36]: 16 kcal/mol
